Test results as given in paper PMC7239452.

Biological target: ERp29 (ER protein of 29 kDa; mouse, Min-6 insulinoma cells) (mouse (endogenous in Min-6)) (UniProt P57759)
Experiment: co-IP; Min-6 lysate, non-denaturing; 50 ug lysate protein, 2 ul primary antibody 1 h, Protein G agarose 2 h at room temperature; precipitated Proinsulin quantified by Mercodia rat/mouse Proinsulin ELISA; controls: no antibody, anti-V5

- fold precipitation of Proinsulin over the anti-V5 control: > 10 fold
Substance: Proinsulin (mouse, Min-6 insulinoma cells) (natural protein)
